Where two headings read alike, the source gives them in different places.
T1: mouse CACNG1 expressed on cells (mouse, UniProt O70578 1-223)
T1 sequence (looked up): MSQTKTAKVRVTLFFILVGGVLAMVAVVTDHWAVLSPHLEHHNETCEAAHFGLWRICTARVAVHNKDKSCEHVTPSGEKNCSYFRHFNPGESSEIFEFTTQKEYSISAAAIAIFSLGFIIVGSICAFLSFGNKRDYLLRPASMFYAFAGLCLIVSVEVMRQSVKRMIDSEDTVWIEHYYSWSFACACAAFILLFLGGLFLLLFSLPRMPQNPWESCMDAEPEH


What was measured:
[1] = target: T2, human CACNG1 expressed on cells (human, UniProt Q06432 1-222); experiment: imaging cell binding, HuSKM myotubes
T2 construct: also called hCACNG1; HEK293/hCACNG1
Method: (§1) HuSKM were seeded in collagen-coated 96-well plates (Greiner Bio-One #655956) at 8,500 cells/well and grown for 24 hours. The growth media was changed to MyoTonic Differentiation Media (Cook Myosite Cat #MD-5555) and replaced every 2 days. Myotubes were assayed after 6 days of differentiation. C2C12 mouse myoblasts were maintained in DMEM with 10% FBS and 1% penicillin-streptomycin supplement and grown in a 37° C. incubator with 5% CO₂. C2C12 cells were seeded in collagen-coated 96-well plates (Greiner Bio-One #655956) at 10,000 cells/well for the cell binding assay and 5,000 cells/well for the cell killing assay. After 24 hours, growth media was replaced with differentiation media (DMEM with 2% horse serum) and placed in a 37° C. incubator with 7.5% CO₂. C2C12 myotubes were assayed after 3 days of differentiation. HEK293/hCACNG1, HEK293/mCACNG1, and HEK293 cells were seeded at 10,000 cells (cell binding assay) or 2,000 (cell killing assay) per well in 96-well black collagen coated plates (Greiner Bio-One, cat #655956) in complete growth media and grown overnight at 37° C. in 5% CO₂.
(§2) Relative binding of anti-CACNG1 antibodies was assessed across the entire panel of cell lines via imaging analysis. […] After one wash with antibody dilution buffer, samples were fixed in CytoFix (BD Biosciences, Cat #554655) diluted 1:1 in PBS and supplemented with a 1:2000 dilution of Hoechst 33342 (Thermo, Cat #H1399) for 20 minutes on ice. Images were acquired with a 10× objective on the Opera Phenix (Perkin Elmer) and relative fluorescence units (RFU) was determined using Harmony software (Perkin Elmer).

[2] = target: T2, human CACNG1 expressed on cells; experiment: cell-based or functional assay
[3] = target: T1, mouse CACNG1 expressed on cells; experiment: cell-based or functional assay
[4] = target: T2, human CACNG1 expressed on cells; experiment: cell-based or functional assay; remark: listed apart in the source
[5] = target: T1, mouse CACNG1 expressed on cells; experiment: imaging cell binding, HEK293/mCACNG1
Method: as §1, §2

[6] = target: T2, human CACNG1 expressed on cells; experiment: cell-based or functional assay; remark: listed apart in the source
[7] = target: T2, human CACNG1 expressed on cells; experiment: cell-based or functional assay; remark: listed apart in the source
[8] = target: T2, human CACNG1 expressed on cells; experiment: imaging cell binding, HEK293/hCACNG1
Method: as §1, §2

[9] = target: T1, mouse CACNG1 expressed on cells; experiment: imaging cell binding, C2C12 mouse myotubes
Method: as §1, §2

[10] = target: T3, nanodisc embedded human CACNG1 expressed with a C-terminal PADRE-Flag-His tag (human, UniProt Q06432 1-222); experiment: SPR, anti-His-captured nanodisc, 25 C
T3 construct: Captured on an anti-His Biacore surface; also called human CACNG1 nanodisc; CACNG1 nanodisc; not shown: C-terminal tag
Method: Equilibrium dissociation constants (KD values) for nanodisc embedded human CACNG1 expressed with a C-terminal […] tag (human CACNG1 nanodisc; concentration 0.82 mg/ml) binding to purified anti-CACNG1 antibodies were determined using a real-time surface plasmon resonance biosensor technology with a Biacore T200 instrument. The CM5 Biacore sensor surface was derivatized by amine coupling with a monoclonal mouse anti-His antibody (Cytiva; Marlborough, MA). All Biacore binding studies were performed in a buffer composed of 0.01M HEPES, 0.15M NaCl, 1 mM CaCl₂, 0.5 mM MgCl₂, pH 7.4 (HBS-N++ running buffer). Different concentrations of anti-CACNG1 antibodies (ranging from 300 nM to 12 nM in 5-fold serial dilutions) prepared in HBS-N++ running buffer were injected over the captured human CACNG1 nanodisc at a flow rate of 30 μL/minute. Antibody association was monitored for 2 minutes while dissociation was monitored in HBS-N++ running buffer for 5 minutes. At the end of each cycle, the human CACNG1 nanodisc capture surface was regenerated using three 10 second injections of 10 mM Gly pH1.5. All binding kinetics experiments were performed at 25° C.
The specific SPR-Biacore sensorgrams were obtained by a double referencing procedure. The double referencing was performed by first subtracting the signal of each injection over a reference surface (anti-His) from the signal over the experimental surface (anti-His captured human CACNG1 nanodisc) thereby removing contributions from refractive index changes. In addition, running buffer injections were performed to allow subtraction of the signal changes resulting from the dissociation of captured antibodies from the coupled anti-His surface. Kinetic association (kₐ) and dissociation ([…]) rate constants were determined by fitting the real-time sensorgrams to a 1:1 binding model using Scrubber v2.0c curve fitting software. Binding dissociation equilibrium constants (KD) and dissociative half-lives (t %) were calculated from the kinetic rate constants as: […]

[11] = target: T2, human CACNG1 expressed on cells; experiment: cell-based or functional assay; remark: listed apart in the source
[12] = target: T2, human CACNG1 expressed on cells; experiment: imaging cell binding, HEK293/hCACNG1; remark: listed apart in the source
Method: as §1, §2

[13] = target: T1, mouse CACNG1 expressed on cells; experiment: imaging cell binding, C2C12 mouse myotubes; remark: listed apart in the source
Method: as §1, §2

[14] = target: T2, human CACNG1 expressed on cells; experiment: imaging cell binding, HuSKM myotubes; remark: listed apart in the source
Method: as §1, §2

[15] = target: T2, human CACNG1 expressed on cells; experiment: cell-based or functional assay; remark: listed apart in the source
[16] = target: T2, human CACNG1 expressed on cells; experiment: cell-based or functional assay; remark: listed apart in the source
[17] = target: T2, human CACNG1 expressed on cells; experiment: cell-based or functional assay; remark: listed apart in the source
[18] = target: T2, human CACNG1 expressed on cells; experiment: live myotubes (human myotubes per paragraph 866) incubated with antibody, detection with Alexa 647-conjugated F(ab')2 secondary antibody, Hoechst counterstain, fluorescence imaging; titration 100 to 0.02 nM and 0 nM
[19] = target: T2, human CACNG1 expressed on cells; experiment: cell-based or functional assay; remark: listed apart in the source
[20] = target: T2, human CACNG1 expressed on cells; experiment: cell-based or functional assay; remark: listed apart in the source
[21] = target: T2, human CACNG1 expressed on cells; experiment: cell-based or functional assay; remark: listed apart in the source

T2 sequence (Q06432 whole entry): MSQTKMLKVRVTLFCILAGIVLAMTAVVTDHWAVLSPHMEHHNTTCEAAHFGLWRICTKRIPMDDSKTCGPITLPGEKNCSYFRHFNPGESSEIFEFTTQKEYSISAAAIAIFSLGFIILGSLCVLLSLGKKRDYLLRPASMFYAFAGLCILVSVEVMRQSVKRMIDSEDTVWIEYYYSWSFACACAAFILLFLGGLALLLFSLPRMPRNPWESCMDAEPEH
T3 sequence (Q06432 whole entry): as above

| Binder | EC50 [1] [nM] | S/N [1] [fold] | % KILL, indirect cell killing, HEK293/hCACNG1 [2] [%] | % KILL, indirect cell killing, HuSKM [2] [%] | EC50/IC50, indirect cell killing, HEK293/hCACNG1 [2] [nM] | EC50/IC50, indirect cell killing, HuSKM [2] [nM] | % KILL, indirect cell killing, HEK293/mCACNG1 [3] [%] | EC50/IC50, indirect cell killing, HEK293/mCACNG1 [3] [nM] | Kd [10] [nM] | koff [10] [s⁻¹] | kon [10] [M⁻¹ s⁻¹] | mAb bound at 300 nM [10] [RU] | t1/2 [10] [min] | EC50/IC50, indirect cell killing, HuSKM [11] [nM] | further results |
| --- | --- | --- | --- | --- | --- | --- | --- | --- | --- | --- | --- | --- | --- | --- | --- |
| REGN5972 (antibody, V domains shown, also called H4H31265P2/REGN5972; CACNG1 hIgG1 antibody) VH: QVQLVESGGGVVQPGRSLRLSCTASGFTFRSYGMHWVRQAPGKGLEWVSVIWIDGNNIYYADSVKGRFTISRDNSKNTLYLQMDSLRAEDTAVYYCARRLAITSAAPFDYWGQGTLVTVSS VL: not shown | 2.9 | 313 | 95.4 | 97.4 | 0.00139 | 0.585 | 11 | > 1 | – | – | – | – | – | – | % KILL, indirect cell killing, C2C12 [3]: 0%; EC50/IC50, indirect cell killing, C2C12 [3]: > 10 nM; EC50 of androgen receptor luciferase reporter activation (RLU) by the DHT conjugate REGN5972-M3004 in hCACNG1.AR.Luc LNCaP cells, 24 hours; concentration adjusted for DAR [4]: 19 nM; EC50 [5]: > 100 nM; S/N [5]: 5.3 fold; EC50 of androgen receptor luciferase reporter activation (RLU) by the DHT conjugate REGN5972-M3004 in hCACNG1.AR.Luc LNCaP cells, 48 hours; concentration adjusted for DAR [6]: 6.49 nM; EC50 of androgen receptor luciferase reporter activation (RLU) by the DHT conjugate REGN5972-M3004 in hCACNG1.AR.Luc LNCaP cells, 72 hours; concentration adjusted for DAR [7]: 7.79 nM; EC50 [8]: 6.6 nM; S/N [8]: 172 fold; S/N [9]: 1.6 fold |
| REGN9908 (antibody, mouse IgG2b, V domains shown, mIgG2b) VH: EVQLLESGGGLAQPGGSLRLSCAASGFTFSSYAMSWVRQAPGKGLEWVSSVSGSGGTTYYAASVKGRFTVSRDNSKKTLYLQMNSLRAEDTAVYYCGKGGYCSSSGCRHYGMDVWGQGTTVTVSA VL: QSVLTQPPSASGTPGQRVAISCSGSNSNIGNNYLYWYQQIPGTTPKLLIYRNNQRPSGVPDRFSASKSGTSASLAISGLRSGDEADYYCAAWDDSLSGYVFGTGTKVTVLG | 14.8 | 164 | – | – | – | – | – | – | 9.57 | 0.00402 | 419000 | 21 | 2.9 | 0.0859 | – |
| REGN9909 (antibody, mouse IgG2a, kappa, V domains shown, mIgG2a) VH: EVQLLESGGGLVQPGGSLRLSCAASGFTFNNYGMSWVRQGPGKGLEWVSSISGSGGTTFYADSVKGRFTISRDNSKNTLYLQMNSLRAEDTAVYYCGKGGYCSSSGCRHYGMDVWGQGTTVTVSS VL: QSVLTQPPSASGTPGQRVTISCSGSSSNIGNNYIYWYQRLPGTTPKLLIYRNNQRPSGVPDRFSGSKSGTSASLAISGLRSEDEADYYCAAWDDTLSGYVFGTGTKVTVLR | 6.51 | 141 | 95.2 | 99.5 | 0.00235 | 0.0183 | 88.5 | 0.0612 | 4.15 | 0.00137 | 331000 | 22 | 8.4 | 0.00968 | EC50 [12]: 1.6 nM; S/N [12]: 5.4 fold; EC50 [13]: 8.3 nM; S/N [13]: 4.2 fold; EC50 [14]: 14 nM; S/N [14]: 171 fold |
| REGN14573-M3004 (antibody, human IgG1, lambda, N297Q, N297Q; DHT linker-payload M3004 conjugated, DAR about 4) heavy chain: not shown light chain: QSVLTQPPSVSAAPGQKVTISCSGSSSNIGNNYVSWYQQLPGTAPKLLIYDNNKRPSGIPDRFSGSKSGTSATLGITGLQTGDEADYYCGTWDLSLSFNWVFGGGTKLTVLGQPKAAPSVTLFPPSSEELQANKATLVCLISDFYPGAVTVAWKADSSPVKAGVETTTPSKQSNNKYAASSYLSLTPEQWKSHRSYSCQVTHEGSTVEKTVAPTECS | – | – | – | – | – | – | – | – | – | – | – | – | – | – | EC50 of androgen receptor luciferase reporter activation (RLU) by the DHT conjugate REGN14573-M3004 in hCACNG1.AR.Luc LNCaP cells, 24 hours; concentration adjusted for DAR [15]: 214 nM; EC50 of androgen receptor luciferase reporter activation (RLU) by the DHT conjugate REGN14573-M3004 in hCACNG1.AR.Luc LNCaP cells, 48 hours; concentration adjusted for DAR [16]: 213 nM; EC50 of androgen receptor luciferase reporter activation (RLU) by the DHT conjugate REGN14573-M3004 in hCACNG1.AR.Luc LNCaP cells, 72 hours; concentration adjusted for DAR [17]: 185 nM |
| REGN7854 (antibody, human IgG4 S228P, kappa, V domains shown, also called CACNG1 Ab) VH: QVQLVQSGAEVKKPGASVKVSCKASGYAFTTYGITWVRQAPGQGLEWMGWISAYNGNTNYAEKVQGRFTMTTDTSTNTAYMELRSLRSDDTAVYFCARKGHYGSGTYYNPFGFDFWGQGTMVTVSS VL: EIVLTQSPGTLSLSPGERATLSCRASQSVSSSYLAWYQQKPGQAPRLLIYGASSRATGIPDRFSGSGSGTDFTLTISRLEPEDFALYFCQQYYGSPWTFGQGTKVEIKR | – | – | – | – | – | – | – | – | – | – | – | – | – | – | binding result [18]: binds |
| REGN14572 (antibody, human IgG1, kappa, N297Q) heavy: not shown light: DIQMTQSPSTLSASVGDRVTLTCRASQSISNKLAWYQQKPGKAPNLLIYKASNLESGVPSRFSGSGSGTEFTLTISSLQPDDFATYYCQQYNSYSWTFGQGTKVEIKRTVAAPSVFIFPPSDEQLKSGTASVVCLLNNFYPREAKVQWKVDNALQSGNSQESVTEQDSKDSTYSLSSTLTLSKADYEKHKVYACEVTHQGLSSPVTKSFNRGEC | – | – | – | – | – | – | – | – | – | – | – | – | – | – | EC50 of androgen receptor luciferase reporter activation (RLU) by the DHT conjugate REGN14572-M3004 in hCACNG1.AR.Luc LNCaP cells, 24 hours; concentration adjusted for DAR [19]: 11.2 nM; EC50 of androgen receptor luciferase reporter activation (RLU) by the DHT conjugate REGN14572-M3004 in hCACNG1.AR.Luc LNCaP cells, 72 hours; concentration adjusted for DAR [20]: 10.3 nM; EC50 of androgen receptor luciferase reporter activation (RLU) by the DHT conjugate REGN14572-M3004 in hCACNG1.AR.Luc LNCaP cells, 48 hours; concentration adjusted for DAR [21]: 11.9 nM |

From US20240182561A1 (Regeneron, published 2024)
